Test: soluble on expression in E. coli; label from the status in PepcDB or PDB records

With “MGSDKIHHHHHHAGSCTGNFEEYNTNQFQIHEADPSTLMKSMIETIVNIQQNDSQMMDQMVGQLGGYLTCANVWSGTNFGTFNQSDAWNAGPWNTNFEKIYGNFFQIQEATNESGHYYAFARMIRAITMLRVADCYGPMPYSQVKKGNFYVAYDTEEQVYKNIMEDFASAANVLYNYYKDTNGNAPLASNDPVFSGNYANWARLANSMRLRVAIRISTAYPEMAKENAEAAASHEAGLIEANNDNAMMDCGSQTNPYQLAAVSWGDLRVNANIVDYMNGYGDPRMSKYFNHSTFTGHTQEYVGMRSGEDGFAKSDVAGYSIPAITGTSKLLVFCAAETAFLRAEGKLKNWSVGNKSAKEYYEEGIKLSMEQYGTTMPDNYLTNTEKPTVSHNNDPRGHAYTISNTVAVAWNDNNEEENLQRIITQKWIANYPLGLEAWAEYRRTGYPELYPCIDNLSPSGVDSKRGMRRLRFPYTEVQNNHSNYQQGVSYLKNGGPDNEATDLSWGKTN” as the sequence, how does the “soluble on expression in E. coli” value read?
The value was “not soluble”.

For “MIEFDNLTYLHGKPQGTGLLKANPEDFVVVEDLGFEPDGEGEHILVRILKNGCNTRFVADALAKFLKIHSREVSFAGQKDKHAVTEQWLCARVPGKEMPDLSAFQLEGCQVLEYARHKRKLRLGALKGNAFTLVLREVSNRDDVEQRLIDICVKGVPNYFGAQRFGIGGSNLQGALRWAQTNTPVRDRNKRSFWLSAARSALFNQIVAERLKKADVNQVVDGDALQLAGRGSWFVATTEELAELQRRVNDKELMITAALPGSGEWGTQREALAFEQAAVAAETELQALLVREKVEAARRAMLLYPQQLSWNWWDDVTVEIRFWLPAGSFATSVVRELINTTGDYAHIAELEHHHHHH”, which “soluble on expression in E. coli” value is on record?
The value was “soluble”.

For “MMKEFNPREIEKKWQKRWEEAGVFKAQEGKPNKFYVLEMFPYPSGRIHMGHVRNYTIGDAIARYLKMRGKNILHPMGWDAFGLPAENAAIKHGIHPAKWTYENIDYMKKQLKILGFSYDWDREIATCDPEYYKWNQWIFLKMLERGIAYRKTAKVNWCPHDQTVLANEQVIEGKCWRCGTPIVQKEVPSWFLRITAYADRLLEDLKKLEGKWPERVIAQQRNWIGRSEGALIRFYVEIEEPEKFLNCVPEELKETLLKEKRIYIDVFTTRPDTVFGATFVVLAPEHPLVPVLACIGERLGNACYSDVENFVEKMKKMSTRERTMEEDKEGVFLGVYATNPANGEKIPVWSANYVLYEYGTGAIMCVPAHDQRDWEFAKKYDLPIKVVVKPEGAWDFEKGAYEGKGTLVNSDGFDGLDSETAKRKITEWLQDRGLGEKKVSYRLRDWNISRQRYWGTPIPVVYCEKCGMVPVPEDQLPVKLPLDVKFTGQGNPLETSEEFVNTTCPKCGGKARRETDTMDTFFDSSWYFLRFCDPKNDREPFSREKVDYWMPVDVYIGGIEHAVLHLLYARFFQKFLKDLGLVRDDEPFEKLITQGMVLKKWVSVKKLLDYLGLSEEDEVEELKKRLEELGARRA”, which “soluble on expression in E. coli” value is on record?
Its value is “soluble”.

With “MGHHHHHHSHMASKKPDKTYEEMVKEVERLKLENKTLKQKVKSSGAVSSDDSILTAAKRESIIVSSSRALGAVAMRKIEAKVRSRAAKAVTEQELTSLLQSLTLRVDVSMEETTVGASGGIGPSSQTETKKRRPRSKSRHRHDHE” as the sequence, how does the “soluble on expression in E. coli” value read?
Its value is “not soluble”.

Which “soluble on expression in E. coli” value does the source give for “MSLDHTYVFAVGGLDEVGKNSYAIEHNEETIMVDYGIKFASSDLLGINGIVANTSYFVENNRPIDALLLTHGHEDHIGGIPYLLQTTEVKKIYAPLLATELIKRRLSEFRDIKYNPEIIPFGDDSKVSTKYFEVDFFRVCHSIPDSFGMCIKTPNGRIVSAGDYRYDFGKDTDDTNIHKLVEMSNRGIDIFLSESTNSDQPGFSPSEDNIINNIETLIKNSKGRVFVATFASNLGRIEKIIERAIKSGRRVCIMGRSMEANIKTSKKLGYLKISESDFLTTKELNECKDREILVVLTGSQGEEMAALNQMALGKHPRLSLKPSDSIIMSSNPIPGNFKSVELLINRLYKQGVNMYTNSPNFRIHSSGHATIQELQMMFKILKPKYLIPIHGESKMLSAMKRNANSIGINPENVFVLTNGLKVELKDHNLKLTNQRIDACPIYIDKKVASKSTTDLINKRKLLSEEGIFNIIVLIDHKNKKVVKNPMLSTRGCFYAKDSSSLITKISFSVKDEIESLLNKEAEASKEKIKQAVANVVKFYVWKNKKKNPIVTTTVFDIEGHHHHHH” here?
The value was “not soluble”.

Source: the DeepSol protein solubility set
